# Laboratory results taken from patent publication US9649378B2, “Cancer methods” (priority 2010, dated 2017).
# “Also recorded” adds a separate entry of the source.
# B1: r-OPCML: Purified recombinant human OPCML domain 1-3 protein from E. coli, excluding signal peptide and GPI anchor sequences; SEQ ID No 5 (protein, listed as Homo sapiens)
# chain: PKAMDNVTVRQGESATLRCTIDDRVTRVAWLNRSTILYAGNDKWSIDPRVIILVNTPTQYSIMIQNVDVYDEGPYTCSVQTDNHPKTSRVHLIVQVPPQIMNISSDITVNEGSSVTLLCLAIGRPEPTVTWRHLSVKEGQGFVSEDEYLEISDIKRDQSGEYECSALNDVAAPDVRKVKITVNYPPYISKAKNTGVSVGQKGILSCEASAVPMAEFQWFKEETRLATGLDGMRIENKGRMSTLTFFNVSEKDYGNYTCVATNKLGNTNASIT
# Legend:
# SKOV-3 cells = assay: in vitro growth assay (MTT-based) with rOPCML added to growth media; conditions: 0.5-10 μM for 48 h or 2 μM for 96 h
# Protocol: (§1) (A) SKOV-3 cells were subjected to a 48 h in vitro growth assay with varying concentrations of OPCML administration. (B) A 96 h in vitro SKOV-3 growth assay with 2 μM rOPCML administered to growth media. Time points were collected every 24 h and normalised to control cells treated with vehicle only. Cell viability was quantified using MTT and measured at 570 nm. (C) Upper panel—OSE-C2 and SKOV-3 cells were subjected to a 48 h in vitro growth assay with varying OPCML concentrations (0.5, 1, 2, 5 and 10 μM); lower panel—normal ovarian surface epithelial cells (OSE-C2) and a panel of ovarian (SKOV-3, IGROV, OVISE, OVCAR-5, A2780, PEA1 and PEA2) and […] breast cancer cells were subjected to an in vitro growth assay with 10 μm OPCML. Time points were collected at 24 h and 48 h and cell growth was monitored to vehicle only controls. Cell viability was quantified in all experiments using an MTT-based assay and measured at 570 nm.
# (B) a 96 h in vitro SKOV-3 growth assay with 2 μM rOPCML administered to growth media. Time points were collected every 24 h and normalised to control cells treated with vehicle only. […] Cell viability was quantified in all experiments using an MU-based assay and measured at 570 nm. […] Caspase cleavage was quantified using the GaspaseGlo kit and normalised to cell viability. […]
# [1] = test system: normal ovarian surface epithelial cells (OSE-C2); assay: in vitro growth assay (MTT-based) with rOPCML; assay type: cell-based; conditions: OSE-C2, OPCML expressing
# Protocol: as §1
# (B) a 96 h in vitro SKOV-3 growth assay with 2 μM rOPCML administered to growth media. Time points were collected every 24 h and normalised to control cells treated with vehicle only. (C) Normal ovarian surface epithelial cells (OSE-C2) and a panel of ovarian (SKOV-3, IGROV, OVISE, OVCAR-5, A2780, PEA1 and PEA2), […] breast cancer cells and non-adherant (H69, H501 small-cell) and adherent (A549 carcinoma, HCC95 non-SSLC squamous) lung cancer cells were subjected to an in vitro growth assay with 10 μM of rOPCML. Time points were collected at 24 and 48 h and cell growth was normalised to vehicle only controls. Cell viability was quantified in all experiments using an MU-based assay and measured at 570 nm. Caspase cleavage-based apoptosis assays using (D) A2780 and (E) SKOV-3 were undertaken with administration of rOPCML (2, 5 and 10 μM) over 24 h. Caspase cleavage was quantified using the GaspaseGlo kit and normalised to cell viability. […]
# [2] = test system: ovarian cancer cell lines (SKOV-3, IGROV, OVISE, OVCAR-5, A2780, PEA1 and PEA2); assay: in vitro growth assay (MTT-based) with rOPCML, ovarian panel; assay type: cell-based; conditions: for growth of ovarian and breast cancer cell lines: 10 μM, 24 h and 48 h, versus vehicle only; for ovarian cancer cell lines growth-inhibited / killed, of lines tested: in vitro
# Protocol: (§2) We have tested 0.5, 1, 2, 5 and 10 μM of recombinant […] human OPCML in vitro, and there is a linear dose response which has not yet peaked. […] The physician skilled in the art will be able to identify suitable doses based upon this information and their skill in the art.
# as §1
# (§3) (B) a 96 h in vitro SKOV-3 growth assay with 2 μM rOPCML administered to growth media. Time points were collected every 24 h and normalised to control cells treated with vehicle only. (C) Normal ovarian surface epithelial cells (OSE-C2) and a panel of ovarian (SKOV-3, IGROV, OVISE, OVCAR-5, A2780, PEA1 and PEA2), HER2-positive (MDA-231) and negative (BT-474) breast cancer cells and non-adherant (H69, H501 small-cell) and adherent (A549 carcinoma, HCC95 non-SSLC squamous) lung cancer cells were subjected to an in vitro growth assay with 10 μM of rOPCML. Time points were collected at 24 and 48 h and cell growth was normalised to vehicle only controls. Cell viability was quantified in all experiments using an MU-based assay and measured at 570 nm. Caspase cleavage-based apoptosis assays using (D) A2780 and (E) SKOV-3 were undertaken with administration of rOPCML (2, 5 and 10 μM) over 24 h. Caspase cleavage was quantified using the GaspaseGlo kit and normalised to cell viability.
# [3] = test system: HER2-positive (MDA-231) and negative (BT-474) breast cancer cells; assay: in vitro growth assay (MTT-based) with rOPCML, breast lines; assay type: cell-based; conditions: for breast cancer cell lines growth-inhibited / killed, of lines tested: both HER2 positive and HER2 negative
# Protocol: as §2, §1
# (B) a 96 h in vitro SKOV-3 growth assay with 2 μM rOPCML administered to growth media. Time points were collected every 24 h and normalised to control cells treated with vehicle only. (C) Normal ovarian surface epithelial cells (OSE-C2) and a panel of ovarian (SKOV-3, IGROV, OVISE, OVCAR-5, A2780, PEA1 and PEA2), […] breast cancer cells and non-adherant (H69, H501 small-cell) and adherent (A549 carcinoma, HCC95 non-SSLC squamous) lung cancer cells were subjected to an in vitro growth assay with 10 μM of rOPCML. Time points were collected at 24 and 48 h and cell growth was normalised to vehicle only controls. Cell viability was quantified in all experiments using an MU-based assay and measured at 570 nm. […] Caspase cleavage was quantified using the GaspaseGlo kit and normalised to cell viability.
# [4] = test system: lung cancer cells (H69, H501, A549, HCC95); assay: in vitro growth assay (MTT-based) with rOPCML, lung lines; assay type: cell-based; conditions: 10 μM rOPCML
# Protocol: as §3
# [5] = test system: SKOV-3 and A2780 ovarian cancer cells; assay: Annexin V FACS and caspase-glo apoptosis assays with r-OPCML; assay type: cell-based
# Protocol: as §3
# Purified recombinant human OPCML domain 1-3 protein (r-OPCML) (FIG. 8) was produced from the bacterial expression vector (pHis-Trx) subcloned with domains 1-3 of OPCML, excluding the signal peptide and GPI anchor sequences (FIG. 8A).
# [6] = test system: receptor tyrosine kinase signaling in SKOV-3 and A2780 cells; assay: Western blot / IFM of RTKs and downstream signalling after exogenous OPCML; assay type: cell-based; conditions: for RTK levels and RTK signalling: 2 μM for 48 h, Western blot
# Protocol: FIG. 9: Cellular uptake of recombinant OPCML. SKOV-3 cells were incubated with vehicle alone or vehicle including 2 μM OPCML for 24 h. Cells were then washed 3× with PBS and fixed with 4% PFA. Cells were then prepared for IFM using rabbit α-HER2 mAb and mouse α-OPCML mAb. Goat α-rabbit alexa-488 and α-mouse alexa-555 secondary antibodies were used. Slides were imaged using a Leica SP5 confocal microscope.
# (§4) (A) Western Blot analysis of pHER, tHER2, tEGFR, pEGFR, tFGFR, pFGFR proteins from SKOV-3 cells untreated, treated with vehicle only or OPCML (2 μM) for 48 h. (B) Western blot analysis of pAKT, tAKT, pERK, tERK proteins from SKOV-3 cells untreated, treated with vehicle only or OPCML (2 μM) for 48 h. Protein loading was standardised by BCA-assay and β-tubulin was used as a loading control.
# as §4, with “SKOV-3 and A2780” for “SKOV-3”, “cells” for “cells untreated,”, “tERK,” for “tERK”
# [7] = test system: A2780 cancer cells injected intraperitoneally; assay: intraperitoneal tumour growth assay, r-OPCML versus BSA; assay type: in vivo, nude mouse; conditions: A2780 model; for IP tumour growth / tumour weight: 1 ml (10 μM) IP twice weekly, 3 weeks; for IP tumour growth / tumour weight / ascites formation / volume / number of IP peritoneal deposits / peritoneal dissemination: versus BSA
# Protocol: (§5) Comparison of r-OPCML and control protein (bovine serum albumen) treated A2780 and SKOV-3 cell lines. (A) Gross anatomical observation of the animals (B) Intraperitoneal tumour growth assay. Tumours were removed, weighed and photographed after 3 weeks of twice-weekly 1 mL intraperitoneal injection of 10 μM r-OPCML or BSA. Representative A2780 and SKOV-3 tumour xenografts from 4 animals are presented. A scale bar is shown. (C) mean tumour weight, (D) number of deposits and (E) volume of ascites removed per mouse from the intraperitoneal assay presented in B. Comparison is shown between tumours and ascites collected from BSA- (−) and r-OPCML-treated (+) mice. (F) Western blot analysis of recovered tumours from control (BSA) and r-OPCML treated animals recapitulates in-vitro findings.
# (§6) In view of these in-vitro findings, we proceeded to determine whether r-OPCML protein had potential and relevance as an in-vivo tumour suppressor therapy. Mice with either SKOV-3 or A2780 cancer cells injected intraperitoneally (IP), after tumour establishment, received twice-weekly IP injections of either 1 ml (10 μM) bovine serum albumin (BSA) or 1 ml (10 μM) r-OPCML.
# [8] = test system: SKOV-3 cancer cells injected intraperitoneally; assay: as above; assay type: in vivo, nude mouse; conditions: for IP tumour growth / tumour weight: 1 ml (10 μM) IP twice weekly, 3 weeks
# Protocol: as §5, §6
# [9] = 0.5, 1, 2, 5 and 10 μM tested in vitro, ovarian and breast cancer cell lines
# [10] = listed as recombinant full length human OPCML
# [11] = SKOV-3 model, versus BSA, listed as rOPCML
molecule,measurement,setting,value
B1,SKOV-3 cell growth in vitro,SKOV-3 cells,"specific, dose-dependent inhibition of cell growth"
same,SKOV-3 cell growth in vitro,SKOV-3 cells; listed as exogenous OPCML,inhibits SKOV-3 cell growth
same,effect on normal ovarian surface epithelial cells,[1],without affecting normal ovarian surface epithelial cells
same,effect on normal ovarian surface epithelial cells,[1]; listed as OPCML,sparing normal ovarian surface epithelial cells
same,effect on normal ovarian surface epithelial cells,[1]; listed as rOPCML,no effect
same,growth of ovarian and breast cancer cell lines,[2]; listed as Exogenous OPCML,inhibits growth
same,growth of ovarian and breast cancer cell lines,[2]; listed as OPCML,inhibits growth
same,growth of ovarian and breast cancer cell lines,[2]; listed as rOPCML,specifically inhibits
same,concentration from which inhibition of cell growth is seen,[2]; [9],≥ 2 μm
same,concentration giving frank cell death,[2]; [9],5 to 10 µM
same,response of PEA2 cell line,[2]; PEA2,resistance
same,"ovarian cancer cell lines growth-inhibited / killed, of lines tested",[2],6 of 7
same,"ovarian cancer cell lines growth-inhibited / killed, of lines tested",[2]; listed as rOPCML,6/7
same,"ovarian cancer cell lines growth-inhibited / killed, of lines tested",[2]; [10],6/7
same,growth of HER2+ and HER2− breast cancer cell line,"[3]; 10 μM, 24 h and 48 h",profoundly inhibited
same,"breast cancer cell lines growth-inhibited / killed, of lines tested",[3],2 of 2
same,"breast cancer cell lines growth-inhibited / killed, of lines tested",[3]; [10],2/2
same,"lung cancer cell lines with profoundly inhibited cell growth, of lines tested",[4],5 of 5
same,apoptosis in caspase-glo assay,"[5]; 2, 5 and 10 μM over 24 h",induces apoptosis in both these cell lines in a dose dependent fashion
same,"early apoptosis, time post exposure","[5]; Annexin V FACS apoptosis assay, depending on cell line",2 to 6 h
same,RTK levels and RTK signalling,[6],potently downregulated
same,RTK levels and RTK signalling,[6]; listed as Exogenous OPCML,inhibits RTK signaling
same,RTK levels and RTK signalling,[6]; listed as exogenous OPCML,inhibits receptor tyrosine kinase signaling
same,RTK levels and RTK signalling,[6]; listed as rOPCML,abrogates total RTK levels and inhibits RTK signalling
same,ERK protein levels,"[6]; SKOV-3, 2 μM OPCML 48 h",downregulates
same,HER2 protein level,"[6]; SKOV-3, 2 μM OPCML, listed as exogenous OPCML",downregulation of HER2; also recorded: downregulates
same,pERK and pAKT,"[6]; SKOV-3 and A2780, immunoblotting",abrogating pERK and pAKT
same,AKT S473 phosphorylation,[6]; administration to cancer cells in vitro,inhibits phospho S473 AKT; also recorded: inhibits AKT s473 phosphorylation
same,IP tumour growth / tumour weight,[7],significantly and profoundly suppressed
same,IP tumour growth / tumour weight,[7]; listed as Recombinant OPCML,reduces tumour growth
same,IP tumour growth / tumour weight,[7]; listed as rOPCML,profound inhibition
same,condition of animals at 3 weeks,[7]; BSA controls deteriorating,remained well
same,ascites formation / volume,[7],significantly and profoundly suppressed
same,number of IP peritoneal deposits / peritoneal dissemination,[7],profoundly inhibited
same,ascites formation / volume,[7]; listed as rOPCML,profound inhibition
same,number of IP peritoneal deposits / peritoneal dissemination,[7]; listed as rOPCML,profound inhibition
same,RTKs in recovered IP tumour (Western blotting),"[8]; SKOV3 IP tumour, r-OPCML versus BSA treated",same spectrum of RTKs inhibited
same,peritoneal dissemination,"[8]; SKOV3 model, versus BSA",profound inhibition
same,IP tumour growth / tumour weight,"[8]; SKOV-3 model, versus BSA",significantly and profoundly suppressed
same,IP tumour growth / tumour weight,"[8]; SKOV-3 model, versus BSA, listed as Recombinant OPCML",reduces tumour growth
same,IP tumour growth / tumour weight,[8]; [11],profound inhibition
same,condition of animals at 3 weeks,"[8]; SKOV-3 model, BSA controls deteriorating",remained well
same,ascites formation / volume,"[8]; SKOV-3 model, versus BSA",significantly and profoundly suppressed
same,ascites formation / volume,[8]; [11],profound inhibition
